Measurements as given in patent US20170081409A1 (AGENUS, published 2017).

Molecular target: T1, human PD-1 expressed by activated (SEA-stimulated) primary human CD4+ T cells (human, UniProt Q15116 25-288)
T1 construct: whole, on cells; also called programmed cell death protein 1
Assay: flow cytometry on SEA-stimulated human PBMC, CD4+ gate
Protocol: The anti-PD-1 antibodies AGEN2046w, AGEN2047w, and AGEN2034w were examined for binding to activated peripheral blood mononuclear cells (PBMCs) by flow cytometry. Cryopreserved human PBMCs prepared from unpurified buffy coats (Research Blood Components, Catalog number (Cat#) 002) or cryopreserved cynomolgus PBMCs (Worldwide Primates Inc., customer order) were plated at 10⁵ cells/well in RPMI1640 medium supplemented with Normocin™ (InvivoGen, Cat#ant-nr-1) and 10% heat-inactivated FBS (Gibco, Cat#16140063) in 96-well NUNCLON delta surface plates (NUNC™). The cells were cultured in the presence of 100 ng/ml of Staphylococcus Enterotoxin A (SEA; for human PBMCs) (Toxin Technologies, Cat#at101red) or Staphylococcus Enterotoxin B (SEB; for cynomolgus PBMCs) (Toxin Technology, Cat#bt202red) for 5 days at 37° C., 5% CO₂, and 97% humidity. […] The cells were washed twice with sample buffer and then resuspended in sample buffer and analyzed with a FACS Fortessa cytometer (Becton Dickinson). CD4+ T cells were gated and the mean fluorescence intensity (MFI) was recorded.
The binding of AGEN2034w to activated primary human T cells was measured again in a similar assay. […] Cells were analyzed with a FACS Fortessa cytometer (Becton Dickinson). CD4+ T cells were gated and the mean fluorescence intensity (MFI) of AGEN2034w-positive cells was determined.

T1 sequence (Q15116 25-288): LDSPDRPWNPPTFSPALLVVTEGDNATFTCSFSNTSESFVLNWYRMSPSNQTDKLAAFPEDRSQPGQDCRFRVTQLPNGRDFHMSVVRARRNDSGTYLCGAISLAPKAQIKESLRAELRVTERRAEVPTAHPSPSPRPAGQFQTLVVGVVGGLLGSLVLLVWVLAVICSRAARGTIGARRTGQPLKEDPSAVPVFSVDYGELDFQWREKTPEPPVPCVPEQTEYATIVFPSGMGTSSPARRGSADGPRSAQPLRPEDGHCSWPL

binding result: binds
B1: AGEN2046w (antibody, human IgG1, kappa, V domains shown)
VH: QVQLVESGGGVVQPGRSLRLSCAASGFTFSSYGMHWVRQAPGKGLEWVAVIWYDGSNKYYADSVKGRFTISRDNSKNTLYLQMNSLRAEDTAVYYCASNVDYWGQGTLVTVSS
VL: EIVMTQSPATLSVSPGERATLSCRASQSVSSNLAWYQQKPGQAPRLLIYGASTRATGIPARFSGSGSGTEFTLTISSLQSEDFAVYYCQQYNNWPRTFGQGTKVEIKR
